Measurements published in PMC10811509, “APP‐C31: An Intracellular Promoter of Both Metal‐Free and Metal‐Bound Amyloid‐β40 Aggregation and Toxicity in Alzheimer's Disease” (Advanced Science, 2023).

Columns and labels:
Settings in all cases: both partners purified
amyloid‐β40 (Aβ40) [1] = molecular target: T1, amyloid‐β40 (Aβ40); assay: ITC; APP-C31 600 µM in the syringe, Aβ40 30 µM in the cell; 20 mM HEPES, pH 7.4; 10 °C; one set of sites model
T1 construct: Amyloid-beta 40, cut from amyloid precursor protein (APP) by beta- and gamma-secretases; numbers count on: the Aβ peptide (Asp1 to Val40); Unlabelled peptide; Metal-treated samples (CuCl2, ZnCl2) are told apart by the assay; also called metal-free Aβ40; Cu(II)–Aβ40 and Zn(II)–Aβ40 when treated with CuCl2 or ZnCl2; source: bought: Peptide Institute (HPLC-purified) or Anaspec

[2] = molecular target: T2, uniformly ^15N‐labeled Aβ40 (uniformly 15N-labeled); assay: NMR titration; 2D 1H–15N HSQC (700 MHz); 15N-labeled Aβ40 40 µM, CuCl2 20 µM, APP-C31 200 µM; 20 mM HEPES, pH 7.4; 10 °C
T2 construct: Amyloid-beta 40, cut from amyloid precursor protein (APP); numbers count on: the Aβ peptide (Asp1 to Val40); also called ^15N‐labeled Aβ40 monomer; source: bought: rPeptide Inc

amyloid‐β40 (Aβ40) [3] = molecular target: T1, amyloid‐β40 (Aβ40); assay: native MS; ESI–MS; APP-C31 100 µM incubated with Aβ40 100 µM, 20 mM ammonium acetate, pH 7.3, 37 °C, 2 h, no agitation; diluted tenfold before injection; no metal

T1 sequence (peptide, as listed by the source): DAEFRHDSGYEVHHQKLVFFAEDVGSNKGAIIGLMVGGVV
T2 sequence (peptide, as listed by the source): as above

Kd (amyloid‐β40 (Aβ40) [1]): 150 ± 11.4 µM | dH (amyloid‐β40 (Aβ40) [1]): -1.5 ± 0.3 kcal/mol | binding result [2]: binds | stoichiometry N (amyloid‐β40 (Aβ40) [3]): 1
B1: APP‐C31 (APP_(665–695)) (peptide)
peptide: AAVTPEERHLSKMQQNGYENPTYKFFEQMQN
notes: C-terminal 31 residues of amyloid precursor protein (APP), produced by caspase cleavage; residues 665-695; source: bought: AnaSpec
